Experiments:
[1] = molecular target: BMP-9 receptors expressed on HepG2 cells (ATCC HB8065); assay: 125I-BMP-9 binding to confluent HepG2 cells, displacement by unlabelled BMP-9, Scatchard analysis
[2] = molecular target: plasma membrane preparation from adult rat lung; assay: [125I]rhBMP-9 displacement profile on rat lung plasma membranes
[3] = molecular target: BMP-9 receptors expressed on HepG2 cells (ATCC HB8065); assay: 125I-BMP-9 binding to HepG2 cells, high affinity sites
[4] = molecular target: BMP-9 receptors expressed on HepG2 cells (ATCC HB8065)
[5] = molecular target: plasma membrane preparation from adult rat kidney; assay: [125I]rhBMP-9 displacement profile on rat kidney plasma membranes

- Kd [1]: 0.3 nM
- Kd [2]: 0.6 nM
- Kd [3]: 0.27 nM
- 3H-thymidine incorporation in HepG2 cells [4]: 5 fold
- ED50 of 3H-thymidine incorporation in HepG2 cells [4]: 10 ng/mL
- Kd [5]: 0.3 nM
B1: recombinant human BMP-9 (CHO-derived, mature) (ligand)
chain: TRECSRSCPRTAPQRQVRAVTRRTRMAHVAAGSTLARRKRSAGAGSHCQKTSLRVNFEDIGWDSWIIAPKEYEAYECKGGCFFPLADDVTPTKHAIVQTLVHLKFPTKVG
modifications: 125I-iodinated as tracer; unlabelled BMP-9 used as the displacing ligand

Source: patent US6034062
